Experimental data as given in patent US20260347399A1, “BRAIN PENETRATING PEPTIDES AND METHODS OF USE” (priority 2022, published 2026).
Ends that are not written are not given here.

Columns and labels:
Neuro2A cells = test: In vitro AgNP binding and internalization; format: cell-based, mouse; conditions: pre-incubated with 100 μM free peptide, 1 h, 37 °C
Protocol: To assess the binding and uptake of silver nanoparticles functionalized with Cerepep, Neuro2A were cultured in 24-well plates on polylysine coated glass coverslips until 80-90% confluency. Biotinylated Cerepep peptide or biotin as a non-targeted control and CF555 dye were conjugated to neutravidin-AgNPs prepared as described previously (Tobi et al., 2021). Some samples were pre-incubated with 100 μM Cerepep peptide (Ac-SERVISRAKLAAAL-OH (SEQ ID NO:9), where Ac-acetylation) at 37 °C for 1 h to assess whether the binding and internalization of particles is peptide-dependent. 10 μl (OD=100) of CP-AgNPs or control biotin-AgNPs were added to cells in 500 μl of media and incubated at 37 °C for 1h. In some samples, the cell surface-bound AgNPs were removed with a freshly prepared etching solution containing 10 mM of Na2S2O3 and K3Fe(CN)6 in PBS, which was applied for 3 min. All the samples were washed with DPBS to remove unbound AgNPs. The cells were fixed in methanol, stained with DAPI and analyzed with confocal microscopy as described above.
Next, the interaction of cultured Neuro2A cells with neutravidin-AgNPs labeled with NHS-CF555 dye and functionalized with biotinylated SRRVISRAKLAAAL (SEQ ID NO: 9) (CP-AgNPs) was tested.

mouse CNS = test: CVGTNCY peptide-phage biodistribution; format: in vivo
Protocol: (§1) CVGTNCY (SEQ ID NO:2) peptide-phage or control phage were injected iv into mice, after one hour circulation animals were perfused with 20 ml PBS, organs were collected, weighed, and dropped to 1% NP40-LB solution. Organs were homogenized and titer of each tissue was determined. FAM-labeled peptides (2 mM of peptide in PBS) were injected intravenously and 3 hours later the animals were perfused with 20 mL of PBS. The organs were excised, snap-frozen in the vapor of liquid nitrogen, and stored at −80 °C. For confocal microscopy, the tissues were sectioned at 15 μm and stained with antibodies and DAPI.
(§2) To describe the utility of CVGTNCY (SEQ ID NO:2) peptide as a systemic CNS homing peptide, the biodistribution of CVGTNCY (SEQ ID NO:2) peptide-phage as well as peptide-functionalized AgNPs were analyzed in rodents. […] No significant difference between CVGTNCY (SEQ ID NO:2) and G7 titers was determined in the rest of the analyzed organs/tissues).

rat CNS = test: CVGTNCY peptide-phage biodistribution, rats; format: in vivo; conditions: peptide-phage i.v., 1 h
Protocol: as §1, §2

Reelin = test: Peptide-phage binding on ELISA plate; design: species or system human
Protocol: (§3) Reelin protein (#8546-MR-050; R&D Systems), NRP-1 b1b2 (wt and mutant) or 5% BSA was immobilized on Costar 96-Well ELISA plate (#3590, Corning Life Sciences, Tewksbury, MA, USA). The multiwell plates were coated with 20 μg/ml recombinant protein in 100 μl of PBS overnight at +4 °C, followed by blocking with 1% bovine serum albumin (BSA) in PBS overnight at +4 °C. The phage (5×10^8 pfu in 100 μl of PBS-BSA) was incubated overnight at +4 °C, followed by 6 washes with PBS containing 1% BSA and 0.1% Tween-20 (washing buffer) to remove background phages. BLT5615 OD600=0.5 containing 2 mM IPTG was used to recover the phages and determine the titer of samples.
(§4) Next, an affinity chromatography was performed to identify a receptor of the CVGTNCY (SEQ ID NO:2), and selected a receptor candidate, which is a secreted extracellular matrix protein Reelin. CVGTNCY (SEQ ID NO:2) binding to Reelin protein was tested by cell free method on ELISA plate. Recombinant human Reelin protein (Ser1221-Gln2666; 163 kDa) was used to coat the ELISA plate and the CVGTNCY (SEQ ID NO:2) peptide-phage was allowed to bind to it. After several washes, the titer of the experiment was determined to rate on the binding efficiency.
(§5) Reelin was identified from affinity chromatography proteomics data. […] The binding efficiency was evaluated based on the titer (PFU/ml) of each sample. […]

NRP-1 = biological target: T1, NRP-1 (Homo sapiens, UniProt O14786); test: Peptide-phage binding on ELISA plate
T1 sequence (O14786 273-586 limits assumed): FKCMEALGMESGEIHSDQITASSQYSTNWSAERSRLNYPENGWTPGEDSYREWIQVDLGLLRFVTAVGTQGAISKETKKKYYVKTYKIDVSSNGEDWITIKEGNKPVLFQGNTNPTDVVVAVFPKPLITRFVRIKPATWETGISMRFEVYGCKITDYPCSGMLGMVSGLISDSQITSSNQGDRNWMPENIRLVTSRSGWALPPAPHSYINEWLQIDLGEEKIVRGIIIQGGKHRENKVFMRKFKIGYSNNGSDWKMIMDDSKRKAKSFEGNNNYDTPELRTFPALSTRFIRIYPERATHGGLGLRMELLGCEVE
Protocol: as §3, §4, §5

mutant NRP1 = biological target: T2, mutant NRP1 (Homo sapiens, UniProt O14786); test: Peptide-phage binding on ELISA plate
T2 sequence (O14786 273-586 limits assumed): T1 sequence (O14786 273-586 limits assumed)
Protocol: as §3, §4, §5

brain parenchyma = test: Peptide-phage homing in vivo vs ex vivo; design: species or system mouse

Substance: SRRVISRAKLAAAL [Cerepep, SRRVISRAKLAAAL]
- effect of free peptide on binding and internalization of CP-AgNPs (Neuro2A cells): abolished

Substance: CVGTNCY
- homing preference (mouse CNS; mouse, in vivo): homes preferentially to the eyes/brain/CNS
- homing to other organs (mouse CNS; peptide-phage i.v., 1 h, mice): did not show a trend of homing
- level in CNS and eyes compared to control G7 phage (mouse CNS; peptide-phage i.v., 1 h, mice): High level
- regional homing in CNS (mouse CNS; peptide-phage i.v., 1 h, mice): tendency to home more to the hippocampus, frontal cortex and cerebellum
- homing to CNS vs other organs (rat CNS): homes preferentially to the CNS than to other organs
- binding to Reelin (Reelin): specific binding
- binding to NRP-1 (NRP-1): no binding was detected
- binding to mutant NRP1 (mutant NRP1): no binding was detected
- brain homing in vivo after iv injection (brain parenchyma): homes to the brain parenchyma
